The record followed here is patent US20170204174A1 (published 2017).

Positions count from the first letter of the chain named.

Test [1] deals with recombinant mature human GDF-15 protein (SEQ ID No: 8) (human) (UniProt Q99988). In words: Surface Acoustic Wave (SAW) gold chip biosensor.
For test [2], the target named is T1, recombinant mature human GDF-15 protein (SEQ ID No: 8) (human, UniProt Q99988 197-308).
T1 construct: also called recombinant human GDF-15; recombinant GDF-15
T1 sequence: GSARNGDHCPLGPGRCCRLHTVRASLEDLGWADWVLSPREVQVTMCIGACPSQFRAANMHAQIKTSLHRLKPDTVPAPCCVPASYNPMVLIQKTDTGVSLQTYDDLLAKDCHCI
The test can be described thus: Surface Acoustic Wave (SAW) gold chip biosensor.

The target of test [3] is T1, recombinant mature human GDF-15 protein …. In words: Surface Acoustic Wave (SAW) gold chip biosensor; antibody as serum-free CHO culture supernatant.
For test [4], the target named is T2, recombinant mature human GDF-15 protein derived from expression in E. coli (human, UniProt Q99988 195-308).
T2 construct: mature; also called GDF-15 derived from E. coli expression
T2 sequence (looked up): T1 sequence with G1A, S2R
In words: SPR (ProteOn XPR36), E. coli GDF-15 immobilised, antibody as analyte. The text has this: (§1) For preparing the biosensors recombinant mature human GDF-15 protein was immobilized on flow cells 1 and 2. On one flow cell recombinant GDF-15 derived from Baculvirus-transfected insect cells (HighFive insect cells) and on the other recombinant protein derived from expression in E. coli was used. The GLC sensor chip was activated using Sulfo-NHS (N-Hydroxysulfosuccinimide) and EDC (1-Ethyl-3-[3-dimethylaminopropyl]carbodiimide hydrochloride) (Bio-Rae ProteOn™ Amine Coupling Kit) according to the manufacturer's recommendation, the sensor surface was subsequently loaded with the proteins up to a density of about 600 RU (1 Ru=1 pg mm⁻²). The non-reacted coupling groups were then quenched by perfusion with 1M ethanolamine pH 8.5 and the biosensor was equilibrated by perfusing the chip with running buffer ([…], 150 mM NaCl, 3.4 mM EDTA, 0.005% Tween®20, pH 7.4, referred to as HBS150). As controls two flow cells were used, one empty with no protein coupled and one coupled with an non-physiological protein partner (human Interleukin-5), which was immobilized using the same coupling chemistry and the same coupling density. […] The resulting sensogram was analyzed using the software ProteOn Manager version 3.0. […]

In test [5] the target is T1, recombinant mature human GDF-15 protein …. The test can be described thus: SPR (ProteOn XPR36), insect-cell GDF-15 immobilised, antibody as analyte, 1:1 Langmuir, 25° C.
Source text: as §1

Test [6] shares this target. In words: Surface Acoustic Wave (SAW) gold chip biosensor. This is another data set of the same source.
Test [7] shares this target. The test can be described thus: SPR (ProteOn XPR36), KD=koff/kon, insect-cell GDF-15 immobilised.
Source text: as §1

The next test has as its target human Interleukin-5 (human, UniProt P05113 20-134). The test can be described thus: SPR (ProteOn XPR36), IL-5 immobilised, antibody as analyte.
Source text: as §1

human Interleukin-5, sequence (P05113 20-134 limits assumed): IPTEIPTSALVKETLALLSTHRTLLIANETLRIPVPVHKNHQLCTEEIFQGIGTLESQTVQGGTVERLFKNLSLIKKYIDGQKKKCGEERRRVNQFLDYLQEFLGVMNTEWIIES

As for Rituxumab (control antibody), the Kd in test [1] turned out to be 1120 nM.

B1: H1L5 humanized B1-23 anti-GDF-15 antibody (antibody, human IgG1, V domains shown)
VH: QITLKESGPTLVKPTQTLTLTCTFSGFSLSTSGMGVSWIRQPPGKGLEWLAHIYWDDDKRYNPTLKSRLTITKDPSKNQVVLTMTNMDPVDTATYYCARSSYGAMDYWGQGTLVTVSS
VL: DIVLTQSPSFLSASVGDRVTITCKASQNVGTNVAWFQQKPGKSPKALIYSASYRYSGVPDRFTGSGSGTEFTLTISSLQPEDFAAYFCQQYNNFPYTFGGGTKLEIKR
notes: Human IgG1 (trastuzumab backbone); also called H1L5 anti-GDF-15 antibody; humanized B1-23-H1L5 antibody
In the case of B1, the “fold higher affinity than the murine B1-23 antibody” value in test [2] was approximately 5 fold. Also, the Kd in test [3] turned out to be 5.62 nM.

B2: murine monoclonal anti-human GDF-15 antibody mAb-B1-23 (antibody, V domains shown)
VH: QVKLQQSGPGILQSSQTLSLTCSFSGFSLSTSGMGVSWIRQPSGKGLEWLAHIYWDDDKRYNPTLKSRLTISKDPSRNQVFLKITSVDTADTATYYCARSSYGAMDYWGQGTSVTVSS
VL: DIVLTQSPKFMSTSVGDRVSVTCKASQNVGTNVAWFLQKPGQSPKALIYSASYRYSGVPDRFTGSGSGTDFTLTISNVQSEDLAEYFCQQYNNFPYTFGGGTKLEIKR
notes: also called anti-human GDF-15 mAb-B1-23; B1-23 anti-GDF-15 antibody (murine, IgG2a)
In the case of B2, in test [4], the “factor by which the affinity differs from that for insect-cell GDF-15” value was less than 2 fold. In test [5], the koff stood at 0.00043 s⁻¹ and the kon came to 540000 M⁻¹ s⁻¹. Further, the Kd in test [6] was 28.8 nM. The equilibrium dissociation constant (Kd) in test [7] was approximately 0.79 nM. Besides, the binding result with human Interleukin-5 was “no binding (tested: 0.4, 0.8, 3, 12, 49 and 98 nM)”.

B3: chimeric anti-human GDF-15 mAb-B1-23 antibody (antibody, human IgG1, kappa, V domains shown)
VH: B2 VH
VL: B2 VL
notes: Murine variable domains, constant domains of a human IgG1 (trastuzumab backbone); also called Chimeric B1-23 anti-GDF-15 antibody; chimeric B1-23
In the case of B3, the “fold higher affinity than the murine B1-23 antibody” value in test [2] is approximately 2 fold. Besides, the Kd in test [6] was 14 nM.
